Test results published in patent US20070122405A1 (Human Genome Sciences, published 2007).

Legend:
[1] = molecular target: T1, Human G-protein Chemokine Receptor (CCR5) HDGNR10 (human, UniProt P51681 1-352); assay: cell-based or functional assay
[2] = molecular target: T1, Human G-protein Chemokine Receptor …; assay: cell-based or functional assay; remark: listed apart in the source
[3] = molecular target: T1, Human G-protein Chemokine Receptor …; assay: cell-based or functional assay; remark: listed apart in the source
[4] = molecular target: T1, Human G-protein Chemokine Receptor …; assay: cell-based or functional assay; remark: listed apart in the source
[5] = molecular target: T1, Human G-protein Chemokine Receptor …; assay: cell-based or functional assay; remark: listed apart in the source
[6] = molecular target: T1, Human G-protein Chemokine Receptor …; assay: cell-based or functional assay; remark: listed apart in the source
[7] = molecular target: T1, Human G-protein Chemokine Receptor …; assay: saturation binding of Eu-labelled antibody to CEM.NKR-CCR5 transfected cells, time resolved fluorometry
From the text: (§1) The 43E2 and 43E2/AK38181 antibodies were labeled with Europium (Eu) using Dissociation-Enhanced Lanthanide Fluorescence Immunoassay (DELFIA™) Eu-labeling kit (Catalog #1244-302, Perkin Elmer Life Sciences, Boston, Mass.) following the manufacturer's instructions. The labeling agent is the Eu-chelate of N1-(p-isothiocynateobenzyl) diethylenetriamine N1, N2, N3, N3-tetraacetic acid (DTTA). The DTTA group forms a stable complex with Eu³⁺ and the isothiocynate group reacts with primary amino groups on the antibodies at alkaline pH to form a stable, covalent thiourea bond. […] The Eu³⁺ content and protein concentration of each labeled antibody was determined.
(§2) The Eu-43E2 and Eu-43E2/AK38181 saturation binding assays were performed in 96 well plates, with 0.3-0.5 million CEM.NKR-CCR5 transfected cells per well, and various concentrations of Eu-43E2 and Eu-43E2/AK38181 in the absence or presence of 100-fold excess of unlabeled CCR5mAb004 for 1 hour at room temperature (RT). […] The fluorescence emitted from the released Eu was determined by time resolved fluorometry (VICTOR 1420 DELFIA™ fluorometer, Wallac Oy, Turku, Finland). The data were analyzed on Prizm software (GraphPad Software, San Diego, Calif.) to determine the equilibrium dissociation constant (Kd).

[8] = molecular target: T1, Human G-protein Chemokine Receptor …; assay: saturation binding of Eu-labelled antibodies to CEM.NKR-CCR5 transfected cells
From the text: as §1, §2

T1 sequence (P51681 whole entry): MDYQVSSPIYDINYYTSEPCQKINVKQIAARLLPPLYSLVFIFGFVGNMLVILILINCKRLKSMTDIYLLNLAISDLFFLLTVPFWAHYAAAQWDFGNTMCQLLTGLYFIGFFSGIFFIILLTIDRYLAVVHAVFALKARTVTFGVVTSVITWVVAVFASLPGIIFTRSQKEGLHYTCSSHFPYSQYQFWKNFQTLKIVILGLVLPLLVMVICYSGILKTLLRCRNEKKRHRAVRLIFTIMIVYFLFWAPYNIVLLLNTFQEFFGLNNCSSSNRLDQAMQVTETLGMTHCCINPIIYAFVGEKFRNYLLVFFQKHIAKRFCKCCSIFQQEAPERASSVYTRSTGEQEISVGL

B1: 43E2, fully human IgG4 CCR5 monoclonal antibody (secreted by cell line NS0mAb43E2) (antibody, V domains shown)
VH: QVQLVESGGGVVQPGRSLRLSCAASGFTLSGYGMHWVRQAPGKGLEWVSLISYDGSNKYYADSVKGRFTISRDDSKNTLYLRMNSLRAEDTAVYYCARGRNDFWSGYYTAGMDVWGQGTTVTVSS
VL: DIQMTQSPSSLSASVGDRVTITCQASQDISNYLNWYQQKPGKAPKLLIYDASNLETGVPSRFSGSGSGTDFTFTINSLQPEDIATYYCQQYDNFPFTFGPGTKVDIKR
notes: also called Eu-43E2
With B1 the “IC50 (read off the curve), HIV-1-JRFL entry, Donor 1 target cells” value [1] was about 1000 nM, the “IC50 of entry of HIV-1-luciferase pseudotyped with env of 92BR025 (clade B) into U87/CD4/CCR5 cells” value [2] was 5.6 nM and the “IC50 of entry of HIV-1-luciferase pseudotyped with env of 92RW009 (clade A) into U87/CD4/CCR5 cells” value [2] was 3.2 nM. The “IC50 of entry of HIV-1-luciferase pseudotyped with env of 92TH001 (clade E) into U87/CD4/CCR5 cells” value [2] was 1.2 nM, the “IC50 of entry of HIV-1-luciferase pseudotyped with env of 92UG005 (clade D) into U87/CD4/CCR5 cells” value [2] was 2.4 nM and the “IC50 of entry of HIV-1-luciferase pseudotyped with env of 93IN101 (clade C) into U87/CD4/CCR5 cells” value [2] was 1 nM. For the same binder, the “IC50 of entry of HIV-1-luciferase pseudotyped with env of 301657 (clade B) into U87/CD4/CCR5 cells” value [2] was 22.5 nM, the “IC50 of entry of HIV-1-luciferase pseudotyped with env of 301714 (clade B) into U87/CD4/CCR5 cells” value [2] was 35.9 nM and the “IC50 of entry of HIV-1-luciferase pseudotyped with env of 302056 (clade B) into U87/CD4/CCR5 cells” value [2] was 8 nM. The “IC50 of entry of HIV-1-luciferase pseudotyped with env of 'Enfuvirtide Resistant' (B/Enfuvirtide Resistant) into U87/CD4/CCR5 cells” value [2] was 8.5 nM, the “IC50 of entry of HIV-1-luciferase pseudotyped with env of ASJM108 (clade B) into U87/CD4/CCR5 cells” value [2] was 8.7 nM and the “IC50 of entry of HIV-1-luciferase pseudotyped with env of ASM80 (clade B) into U87/CD4/CCR5 cells” value [2] was 7.7 nM. The “IC50 of entry of HIV-1-luciferase pseudotyped with env of DU151 (clade C) into U87/CD4/CCR5 cells” value [2] was 2.2 nM, the “IC50 of entry of HIV-1-luciferase pseudotyped with env of JRCSFSDM DIM (B/Enfuvirtide Resistant) into U87/CD4/CCR5 cells” value [2] was 9.7 nM and the “IC50 of entry of HIV-1-luciferase pseudotyped with env of JRFL (clade B) into U87/CD4/CCR5 cells” value [2] was 5.5 nM. The “IC50 of entry of HIV-1-luciferase pseudotyped with env of RU570 (clade G) into U87/CD4/CCR5 cells” value [2] was 5.2 nM, the “Mean IC50 over the panel of HIV-1-luciferase pseudotyped viruses, entry into U87/CD4/CCR5 cells” value [2] was 8.4 nM and the “Median IC50 over the panel of HIV-1-luciferase pseudotyped viruses, entry into U87/CD4/CCR5 cells” value [2] was 5.8 nM. For the same binder, the “IC50 (read off the curve), HIV-1-JRFL entry, Donor 2 target cells” value [3] was about 800 nM, the “Median IC50, inhibition of HIV-1-luciferase pseudotyped viruses” value [4] was 5.8 nM and the “percent of HIV-1-JRFL entry blocked at the highest concentrations tested (up to 2000 nM)” value [5] was at most 60%. For the same binder, the “IC50 (read off the curve), HIV-1-JRFL entry, Donor 3 target cells” value [6] was about 800 nM and the Kd [7] was 2.36 nM.

B2: 43E2/AK38181, fully human IgG4 CCR5 monoclonal antibody (secreted by cell line NS0mAb43E2/AK38181) (antibody, V domains shown)
VH: QVQLVESGGGVVQPGRSLRLSCAASGFTLSGYGMHWVRQAPGKGLEWVSLISYDGSNKYYADSVKGRFTISRDDSKNTLYLRMNSLRAEDTAVYYCARGRNDFWSGYYTAGMDVWGQGTTVTVSS
VL: DIQMTQSPSSLSASVGDRVTITCQASQGIRKYLNWYQQKPGKVPKLLIYDASNLETGVPSRFSGSGSGTDFTFAISSLQPEDTATYYCQQYDDFPFTFGQGTRLEIKR
notes: also called Eu-43E2/AK38181
With B2 the “IC50 (read off the curve), HIV-1-JRFL entry, Donor 1 target cells” value [1] was about 100 nM, the “IC50 of entry of HIV-1-luciferase pseudotyped with env of 92BR025 (clade B) into U87/CD4/CCR5 cells” value [2] was 1 nM and the “IC50 of entry of HIV-1-luciferase pseudotyped with env of 92RW009 (clade A) into U87/CD4/CCR5 cells” value [2] was 1.1 nM. The “IC50 of entry of HIV-1-luciferase pseudotyped with env of 92TH001 (clade E) into U87/CD4/CCR5 cells” value [2] was 0.6 nM, the “IC50 of entry of HIV-1-luciferase pseudotyped with env of 92UG005 (clade D) into U87/CD4/CCR5 cells” value [2] was 1.4 nM and the “IC50 of entry of HIV-1-luciferase pseudotyped with env of 93IN101 (clade C) into U87/CD4/CCR5 cells” value [2] was 1.1 nM. For the same binder, the “IC50 of entry of HIV-1-luciferase pseudotyped with env of 301657 (clade B) into U87/CD4/CCR5 cells” value [2] was 4.4 nM, the “IC50 of entry of HIV-1-luciferase pseudotyped with env of 301714 (clade B) into U87/CD4/CCR5 cells” value [2] was 5 nM and the “IC50 of entry of HIV-1-luciferase pseudotyped with env of 302056 (clade B) into U87/CD4/CCR5 cells” value [2] was 2.3 nM. The “IC50 of entry of HIV-1-luciferase pseudotyped with env of 'Enfuvirtide Resistant' (B/Enfuvirtide Resistant) into U87/CD4/CCR5 cells” value [2] was 2.5 nM, the “IC50 of entry of HIV-1-luciferase pseudotyped with env of ASJM108 (clade B) into U87/CD4/CCR5 cells” value [2] was 2.2 nM and the “IC50 of entry of HIV-1-luciferase pseudotyped with env of ASM80 (clade B) into U87/CD4/CCR5 cells” value [2] was 2 nM. The “IC50 of entry of HIV-1-luciferase pseudotyped with env of DU151 (clade C) into U87/CD4/CCR5 cells” value [2] was 1.3 nM, the “IC50 of entry of HIV-1-luciferase pseudotyped with env of JRCSFSDM DIM (B/Enfuvirtide Resistant) into U87/CD4/CCR5 cells” value [2] was 2.8 nM and the “IC50 of entry of HIV-1-luciferase pseudotyped with env of JRFL (clade B) into U87/CD4/CCR5 cells” value [2] was 2.2 nM. For the same binder, the “IC50 of entry of HIV-1-luciferase pseudotyped with env of RU570 (clade G) into U87/CD4/CCR5 cells” value [2] was 1.7 nM, the “Mean IC50 over the panel of HIV-1-luciferase pseudotyped viruses, entry into U87/CD4/CCR5 cells” value [2] was 2.1 nM and the “Median IC50 over the panel of HIV-1-luciferase pseudotyped viruses, entry into U87/CD4/CCR5 cells” value [2] was 1.7 nM. The “IC50 (read off the curve), HIV-1-JRFL entry, Donor 2 target cells” value [3] was about 60 nM, the “Median IC50, inhibition of HIV-1-luciferase pseudotyped viruses” value [4] was 1.7 nM and the “fold lower IC50 than 43E2, HIV-1-JRFL entry into activated human T-cells” value [5] was at least 10 fold. For the same binder, the “fold lower IC50 than 43E2, inhibition of HIV-1 entry into U87/CD4/CCR5 cells” value [5] was about 3 fold, the “fold lower IC90 than 43E2, inhibition of HIV-1 entry into U87/CD4/CCR5 cells” value [5] was about 10 fold and the “IC50 (read off the curve), HIV-1-JRFL entry, Donor 3 target cells” value [6] was about 20 nM. For the same binder, the “fold difference in binding affinity against 43E2” value [8] was about 2 fold and the Kd [7] was 1.18 nM.
